To fix the notation:
T1: DRB1*0401 molecules, detergent solubilised (human), P01903
T1 chain 1: not shown
T1 chain 2: not shown

Ends that are not written are not given here. Peptide text beside a SMILES is read from it.

One experiment has as its target DRB1*0401 (Homo sapiens, UniProt P01903+P01911, A100K/A169T/F76Y/I96L/K127E/L162R/M171V/N62H/P40V/Q125Y/R42H/S133A/S149N/S66Y/V115G/V209L/W38E). Put plainly: MHC-peptide competition binding assay on isolated DRB1*0401 molecules.
Conditions: not given
Here is the method:
T-cell responses to the selected peptides in patients are analysed by studying T-cell proliferation of peripheral blood lymphocytes (PBL) and synovial fluid derived cells. […] In these human studies the peptides are tested as 15-mers containing the 9-mer sequence of Table 2 as core sequence. […] The MHC binding affinity of the selected peptides is analysed for the most-common MHC class II-arthritis associations. […] The peptide binding affinity is tested in a MHC-peptide competition assay on isolated MHC molecules in the presence of a labelled marker peptide.
# MHC-peptide binding was measured as described in Wauben et al., Int. Immunol. […] Peptide binding is expressed as tire IC50.
“QGTIDTAVLHLDTNL [SEQ ID NO: 72, QGTIDTAVLHLDTNL]” came in with an IC50 of 8 to 16 µM.

Staying with this experiment, now noted: DRB1*0401 1 μM, biotinylated HA-marker peptide 100 nM, peptide 0-256 μM; read-out: DRB1*0401 binding (IC50).
Regarding “MTSLKSVNGQIESLI [SEQ ID NO: 78, MTSLKSVNGQIESLI]”, the IC50 was 64 to 128 µM.

In the case of `CC(C)C[C@H](NC(=O)[C@H](CCC(=O)O)NC(=O)[C@H](CC(=O)O)NC(=O)[C@@H](NC(=O)[C@@H]1CCCN1C(=O)[C@@H](NC(=O)CNC(=O)[C@H](CO)NC(=O)CNC(=O)CNC(=O)[C@@H](N)CC(C)C)[C@@H](C)O)C(C)C)C(=O)N[C@@H](CC(=O)O)C(=O)N[C@@H](CCCCN)C(=O)N[C@@H](CS)C(=O)N[C@@H](CS)C(=O)O` [SEQ ID NO: 79, LGGSGTPVDELDKCC] (H-LGGSGTPVDELDKCC-OH), the IC50 lay in the range of 128 to 256 µM.

As for “SYRLRSPVISIDPPS [SEQ ID NO: 74, SYRLRSPVISIDPPS]”, the IC50 lay within 16 to 32 µM.

Consider “QLLGVSASVPVEHRD [SEQ ID NO: 76, QLLGVSASVPVEHRD]”, for which the IC50 lay within 32 to 64 µM.

With “QPLVQTAVTNIDRPK [SEQ ID NO: 77, QPLVQTAVTNIDRPK]”, the IC50 was 32 to 64 µM.

On to “EDLVGSASGDLDLGK [SEQ ID NO: 75, EDLVGSASGDLDLGK]”, for which the IC50 lay within 32 to 64 µM.

On to “TTTVSSFSLNVEYAI [SEQ ID NO: 80, TTTVSSFSLNVEYAI]”, for which the 50% inhibitory concentration (IC50) was in the range of 128 to 256 µM.

The target in another experiment is T1, DRB1*0401 molecules, detergent …. The experiment can be described thus: competition assay on detergent solubilised DRB1*0401 (1 µM) with biotinylated HA-marker peptide (100 nM).
Conditions: not given
For the molecule LGGSGTPVDELDKCC (not fully specified; cysteine pairing not given here) [Phospholipase A2: …], the IC50 lay in the range of 128 to 256 µM.

For the molecule QPLVQTAVTNIDRPK (modifications not checked) [Fibronectin: …], the IC50 lay in the range of 32 to 64 µM.

In the case of QGTIDTAVLHLDTNL (modifications not checked) [Chondroitin sulf.(4): …], the IC50 lay within 8 to 16 µM.

Take SYRLRSPVISIDPPS (modifications not checked) [Perlecan: …]: the IC50 was in the range of 16 to 32 µM.

As to SSFWPSLPSGVDAAY (modifications not checked) [MMP-3 (1): …], the concentration for half-maximal inhibition (IC50) is 16 to 32 µM.

SAFWPSLPSYLDAAY (modifications not checked) [MMP-10: …] registered an IC50 of 8 to 16 µM.

In the case of QLLGVSASVPVEHRD (modifications not checked) [Chondroitin sulf.(1): …], the IC50 was in the range of 32 to 64 µM.

In turn, MTSLKSVNGQIESLI (modifications not checked) [(Pro)collagen α1(III): …] returned an IC50 of 64 to 128 µM.

Molecule TTTVSSFSLNVEYAI (modifications not checked) [Versican: …] registered an IC50 of 128 to 256 µM.

As for EDLVGSASGDLDLGK (modifications not checked) [Aggrecan (1): …], the IC50 is 32 to 64 µM.

In turn, FFYFFTGSSQLEFDP (modifications not checked) [MMP-3 (2): …] gave an IC50 of 8 µM.

As usually defined, the IC50 is the concentration needed to halve the response being measured.

These data come from patent US6673770B1, “Peptides for the treatment, prophylaxis, diagnosis and monitoring of autoimmune diseases” (Upither B.V., priority 1998, dated 2004).
